Reference: article PMC5507604, “Structure of the Neisseria Adhesin Complex Protein (ACP) and its role as a novel lysozyme inhibitor” (PLoS Pathogens, 2017)

Key:
[1] = target: hen egg-white lysozyme (Hewl) (hen (chicken)) (UniProt P00698)
[2] = target: human lysozyme (HL) (human) (UniProt P61626)
[3] = target: T1, human lysozyme (HL) (human, UniProt P61626 19-148, NT-647-NHS fluorescent dye (in the MST experiment only)); experiment: MST; NT-647-labelled rHL (8.3 nM) constant, 16 two-fold serial dilutions of 2.5 mM rNm-ACPI mixed 1:1; 50 mM Tris pH 7.4, 150 mM NaCl, 10 mM MgCl2, 0.05% (v/v) Tween-20; 20% and 40% MST power, LED 20%; triplicate; conditions: both partners purified
T1 construct: human C-type lysozyme; MST used labelled recombinant HL; also called rHL; recombinant HL; source: bought: Sigma-Aldrich (recombinant HL, MST)
T1 sequence (looked up): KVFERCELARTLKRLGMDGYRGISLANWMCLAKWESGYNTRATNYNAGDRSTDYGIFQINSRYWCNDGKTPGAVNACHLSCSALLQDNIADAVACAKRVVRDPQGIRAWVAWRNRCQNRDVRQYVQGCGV

Sequence of hen egg-white lysozyme (Hewl) (hen (chicken)) (P00698 19-147): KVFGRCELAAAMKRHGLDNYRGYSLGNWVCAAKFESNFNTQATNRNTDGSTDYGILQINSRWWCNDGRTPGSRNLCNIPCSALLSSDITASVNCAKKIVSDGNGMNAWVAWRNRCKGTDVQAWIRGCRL

Nm-ACPI triple mutant Asn79Ala/Tyr84Ala/Gly95Ala (natural protein)
inhibition of Hewl (EnzChek assay, initial rate period) compared with wild-type Nm-ACPI (% reduced activity) [1]: 39

recombinant Neisseria gonorrhoeae Adhesin Complex Protein (rNg-ACP) (natural protein)
protection of M. lysodeikticus cells (1 mg/ml) against lysis by HL (2 μg/ml), OD 595 nm over 2 h and at 24 h, rNg-ACP 0-0.5 μg/ml; ~30–60% protection at 0.1 μg/ml, not protective below 0.1 μg/ml [2]: 80 to 100 % protection

B1: recombinant Neisseria meningitidis Adhesin Complex Protein Type I (rNm-ACPI) (natural protein)
chain: AGTDNPTVAKKTVSYVCQQGKKVKVTYGFNKQGLTTYASAVINGKRVQMPVNLDKSDNVETFYGKEGGYVLGTGVMDGKSYRKQPIMITAPDNQIVFKDCSPR
notes: Adhesin Complex Protein (ACP) Type I, encoded by Allele 1, N. meningitidis serogroup B strain MC58 (NMB2095/NEIS2075); mature polypeptide of 103 residues (amino acids 22-124), mass 12,306 Da with the tag; disulphide bond Cys38-Cys121; Cloned between NdeI and XhoI of pET22b(+); The same construct, 15N-labelled, was used for NMR; also called NMB2095; NEIS2075; source: E. coli BL21 (DE3) pLysS, …
Kd [3]: 11 µM
